Experimental data as given in the supplement of paper PMC12764529.
± gives the half width of the 95% confidence interval.

Assays:
[1] = folding stability dG unfold from chymotrypsin proteolysis; higher = more stable
Outline: (§1)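 Unfolding free energy was derived, per protease or combined, against a sequence-predicted unfolded-state K50 and a shared folded-state K50, starting from K50 inferred by Bayesian fitting of sequencing counts. Digestion with trypsin and chymotrypsin was carried out on designed mini-proteins under 80 residues without cysteine in a PA-tagged cDNA display construct. Only designs with AlphaFold2 dimer inter-PAE above 15 were kept.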

[2] = folding stability dG unfold (combined trypsin and chymotrypsin); higher = more stable
Outline: as §1

[3] = folding stability dG unfold from trypsin proteolysis; higher = more stable
Outline: as §1

Sequence | folding stability dG unfold [1] [kcal/mol] | folding stability dG unfold [2] [kcal/mol] | folding stability dG unfold [3] [kcal/mol]
SAGGAKIKFDIEPTNNTIRVKIEIWLPGGPVEIVEEEPVRVDPNGGIWISFRIRYPDGKPQEFQIPISAGGS [r8_449_TrROS] | 3.08 ± 0.07 | 2.88 ± 0.14 | 2.62 ± 0.057
SAGGAKITVDDNKITIELPLPNGKPAGSINEPLPDGSSRILVKFPDFVLHLEITPEGIKIASIDNNKDSAGG [r13_619_TrMRF] | 1.77 ± 0.064 | 1.51 ± 0.22 | 1.27 ± 0.068
SAGGALKELPDGSVELYYNTETGLFTVRVRHPDKPPLVFTVESPEDALKFAKALEEKGIKIDKVVPAPSAGG [r13_727_TrMRF] | 1.86 ± 0.065 | 2.02 ± 0.14 | 2.1 ± 0.068
SAGGAMVPVNFTLKFTYTNPDGTPVFREKPVTLPFPESDPAAAEAAARARAEAEAAARGVEVDLEVSLSAGG [r13_853_JUSTAS] | 0.219 ± 0.22 | 0.193 ± 0.11 | 0.0284 ± 0.12
SAGGANIHVRMENPGDGKPMSFMIPVKEVREAKQEGKDEIKIPFGGGPMKVEIEPLPDGWVHIRMRMPSAGG [r13_171_TrROS] | -0.0135 ± 0.4 | 0.201 ± 0.26 | 0.417 ± 0.27
SAGGAPGVPSVTVIPFDPSTGRALALVVDGDRVYVISSAVPLEVLRELGVDRVEPLPDGTLVAVSLASAGGS [r8_382_TrMRF] | 1.49 ± 0.027 | 1.38 ± 0.041 | 1.13 ± 0.02
SAGGAPLVPVSTETYTVKDSKGNEVTITIETLPDGSYRITITYPNGEVKEYEFPSKEEAEKLEITVNPSAGG [r13_109_JUSTAS] | 3.66 ± 0.1 | 3.62 ± 0.14 | 3.63 ± 0.23
SAGGAPNWKIEKIEIEYPGRKIEVWRHDNMWFIHIPAPPGYPIRIKIKIEPDNGETQTQERTFPIPPPSAGG [r13_191_TrROS] | 2.83 ± 0.073 | 2.37 ± 0.35 | 1.75 ± 0.061
SAGGAPSSSPIPIDLGDPNDEEKLKAEVEAIEKEYAAKGVTPITVERVGENKYRIKIPTGGVATVALSAGGS [r16_703_JUSTAS] | -0.0876 ± 0.12 | -0.169 ± 0.12 | -0.55 ± 0.11
SAGGAPTVELKTETIETEDGTYLVVEAKVPTPDVTLEIKLPHGGETEVVYDPETGTATVVFRLPPDWLSAGG [r13_380_TrMRF] | 2.51 ± 0.053 | 2.25 ± 0.15 | 1.72 ± 0.088
SAGGAPVTVREEELPENSKLITIEYPDGLTLEVLEYPDKVLVREWDTATGKELSSRTLTHEELEKLLSAGGS [r8_476_JUSTAS] | 2.41 ± 0.034 | 2.19 ± 0.14 | 1.81 ± 0.052
SAGGARFEFTTPEGDRVTVELETTADELRVRVTVHRENEPFTLEATFPLPPPAPPAVPADVPGPSLLLSAGG [r13_691_TrMRF] | 1.62 ± 0.089 | 1.91 ± 0.21 | 2.06 ± 0.15
SAGGASLDDLPLEGIEVLEEEVIPLPNGSTLRKFLVKKPSPGPPELLVEVTEFVDEGSSSVSVTPLGSAGGS [r16_469_JUSTAS] | -0.301 ± 0.45 | 0.0997 ± 0.14 | 0.179 ± 0.054
SAGGASTVEYEITLPLDPSGSVDPDTIRAAAEAIAAADPDFVDHRIEEITITRLPDGTVRFTVTISVPSAGG [r13_462_JUSTAS] | 2.46 ± 0.049 | 2.53 ± 0.092 | 2.66 ± 0.11
SAGGDEIVERVRQLFEDLGFPVEIVDDDAPDGVLRVRISPEAVEKLGPLVINLPFPDIKEVRTELLPSAGGS [r8_318_TrMRF] | 1.5 ± 0.015 | 1.26 ± 0.025 | 0.968 ± 0.013
SAGGDGPPKFEPISIPIGDGVIKIWRSPNGSIHLEIMPPGGKPVASKEYPFPDGRKLKLDIQVKPPEDSAGG [r13_584_TrROS] | 0.252 ± 0.18 | 0.466 ± 0.14 | 0.394 ± 0.13
SAGGDITITKNPENDYYTITLPLPNSNSTAVAFLDPKTGTAVVINPDNPLVLVLEPNGTLKEVKLLPPSAGG [r13_101_TrMRF] | 0.566 ± 0.2 | 0.902 ± 0.15 | 1.04 ± 0.05
SAGGDKKWTAEFDVRKRDDTVEVTLTFTDPNGNETTETYTLTDDELAKLLAELPPEFKNVTRNEVLESAGGS [r16_298_JUSTAS] | 2.04 ± 0.11 | 1.85 ± 0.16 | 1.57 ± 0.043

Sequence | folding stability dG unfold [1] [kcal/mol] | folding stability dG unfold [2] [kcal/mol] | folding stability dG unfold [3] [kcal/mol]
SAGGDKNAKPIKPITISFTLEDGSKKTITATFYKDAVIVEITYINPKTGKPFTKTFVFKKKGVKLLLSAGGS [r16_419_TrMRF] | 3.19 ± 0.094 | 3.02 ± 0.21 | 2.43 ± 0.096
SAGGDLKIEIEPYRMGDYPMYEVKIEDPDGKDITLWMNSNNGQMMVFYPNGKPRRVDSAEDVLEALKSAGGS [r8_168_TrROS] | 0.185 ± 0.16 | 0.149 ± 0.1 | -0.243 ± 0.16
SAGGDNFKIEIQFFPDGHIFILIKWPNGDWILIPVPIEYPVPKRDPDGEVKEPGPVTHTHLFLIPANDSAGG [r13_236_TrROS] | 3.21 ± 0.046 | 2.74 ± 0.16 | 1.88 ± 0.097
SAGGDNKPKVYPITFMIPPDDIKPGDEIPIDEIADNLGIPPNYTIKIKEVQPNPEDGYYMYRIEIVWSAGGS [r16_165_TrROS] | 1.68 ± 0.085 | 1.65 ± 0.073 | 1.57 ± 0.041
SAGGDNVRPIKFEFKDGVKKSIYRSEDMIYINVEFYYDGRPLYRHSIEIPNIPPGDDAEIKFKIPPGSAGGS [r8_155_TrROS] | 1.55 ± 0.22 | 1.24 ± 0.21 | 0.372 ± 0.18
SAGGDPIEDIVKEIAEEHGYPIKNVEVEPVDPNTLVVEVQMPNGYRIKIEIPYDPDGDLNINVEWEPSAGGS [r8_284_TrROS] | 2.04 ± 0.045 | 1.65 ± 0.23 | 1.13 ± 0.11
SAGGDPNTARVVVLTGHPDVITPEQIRTLLENLGADEIKSVEVFTTPTSRVVRFVDSNGAPTVIFVPSAGGS [r8_86_TrMRF] | 1.99 ± 0.032 | 1.88 ± 0.072 | 1.8 ± 0.038
SAGGDSISDIESVNIYSFNIPSNPYPYIIAELTIPDGRKIIAIYDPSTNTVTIIIEDDGKPRIITLPASAGG [r13_960_TrMRF] | 2.9 ± 0.12 | 2.7 ± 0.11 | 2.49 ± 0.1
SAGGDSVYIPGSISEAIDALRENPNKTVHIMSPDGYYIKITVKWDGDGDYKIDIKWQPPPPPPDPEDKSAGG [r13_56_TrROS] | 2.3 ± 0.21 | 2.23 ± 0.39 | 2.23 ± 0.33
SAGGDTVTTTETFPEKPILTVTTTSFSPSGTTTTTTTTYEVENGKIVSKLSTTTTTTAVAPAPPGTASAGGS [r16_682_JUSTAS] | 1.05 ± 0.024 | 0.941 ± 0.036 | 0.71 ± 0.034
SAGGDWMLVIEIEIEGQPTPDGQIKVEISIEIELVRPPPPPITPWDRMAEEARDKNPNIPPDDPEAMTSAGG [r13_136_TrROS] | 1.7 ± 0.095 | 1.93 ± 0.2 | 2.12 ± 0.11
SAGGDWVPIEFTIMVPAEELQEGKPPTAEDIVEELFPPNFNVDIDVQQFPGNGYVYATVKIWVPPGMPSAGG [r13_862_TrROS] | 2.46 ± 0.098 | 2.4 ± 0.21 | 2.36 ± 0.19
SAGGDYVKIDFTVMIPTPEQAEEMAEEIKNFFRFMGIKEVKIKVQRNPNNGMYYVTVDIEIRMPPGAVSAGG [r19_92_TrROS] | 5.12 ± 0.1 | 4.82 ± 0.17 | 3.34 ± 0.2
SAGGEEEILRQIREAAKKGEEVTIVFPKGMSIEELKKLIEEELGVEVEEIKVEKNENGELTVTIKVKSAGGS [r16_318_TrROS_Hall] | 2.99 ± 0.11 | 4.07 ± 0.26 | 4.33 ± 0.24
SAGGEEELRKAAEIAAAPPLEIEPVLETFTVETEEGPRVVLVISPVVRFPGDGVLIPNPVLVIPAEELSAGG [r19_11_TrMRF] | 0.301 ± 0.11 | 0.699 ± 0.11 | 0.861 ± 0.052
SAGGEEKVITKEETITVPPDAGTITISSNEVIKDPNSSYTYYVKESKTVSRDPNSNVYTITLKIKVEKSAGG [r13_574_JUSTAS] | 0.917 ± 0.43 | 0.647 ± 0.33 | -0.0992 ± 0.12
SAGGEELIKELLDKLPPDVKEATIEIEVDGKKVTLTVNEDGEVTLEVIDPETKEKKTFKIKNGKIEPVSAGG [r13_803_TrROS_Hall] | 3.19 ± 0.079 | 2.97 ± 0.28 | 2.46 ± 0.28
SAGGEETVTLELELEFEPGMTEEELEEKARELAEALAEELGLEVEVEVRVERDEDGRVRVTVEVRVKSAGGS [r16_279_TrROS_Hall] | 2.06 ± 0.051 | 2.56 ± 0.086 | 2.94 ± 0.076
